B1: Fab 75 (Fab, V domains shown)
VH: QVQLVESGGGVVQPGRSLRLSCAASGFTFNNYPLHWVRQAPGKGPEWVAVISQDGGNKYYVDSVKGRFTISRDNSKNTLYLQMNNLRAEDTALYYCARDVVVVVAARNHYYNGMDVWGQGTTVTVSS
VL: DIQLTQSPSSVSASVGDRVTITCRASQGISSWLAWYQQKPGKAPKLLIYAVSSLQSGVPSRFSGSGSGTDFTLTISSLQPEDFATYYCQQAKSFPFTFGPGTKVEIK
notes: Fab
B2: antibody 253H165L (antibody, V domains shown)
VH: not shown
VL: DIVMTQSPGTLSLSPGERATLSCRASQSVRSSYLAWYQQKPGQAPRLLIYGASRRGTGIPDRFSGSGSGTDFTLTISRLEPEDFAVYYCQQYGSSPWTFGQGTKVEIK
B3: antibody 165 (antibody, V domains shown)
VH: QVQLVQSGPEVKKPGTSVKVSCKASGFTFTSSAVQWVRQARGQRLEWIGWIVVGSGNTNYAQKFQESVTITRDMSTSTAYMELSSLRSEDTAVYYCAAPHCIGGSCHDAFDIWGQGTMVTVSS
VL: DIVMTQSPGTLSLSPGERATLSCRASQSVRSSYLAWYQQKPGQAPRLLIYGASRRGTGIPDRFSGSGSGTDFTLTISRLEPEDFAVYYCQQYGSSPWTFGQGTKVEIK
notes: also called mAb 165
B4: antibody 281 (antibody, V domains shown)
VH: QVQLVESGGGLVQPGGSLRLSCAASGFPFSIYWMSWVRQAPGKGLEWVANIKQDGSEKYYVDSVKGRFTISRDNAKNSLYLHMNSLRGEDTAVYYCASRYYDFRPEAWFDYWGQGTLVTVSS
VL: not shown
B5: antibody 278 (antibody, V domains shown)
VH: QVQLVQSGAEVKKPGASVKVSCKASGYIFIRYGISWVRQAPGQGLEWMGWISANNGYTNYAQKLQGRVTMTTDTSTSTAYMELRSLRSDDTAVYYCARDGGILTGYLDYFDHWGQGTLVTVSS
VL: DIQMTQSPSSLSASVGDRLTITCRASQSIASYLNWYQQKPGKAPKLLIYAASSLQSGVPSRFSGSGSGTDFTLTISSLQPEDFATYHCQQSYSTLGITFGPGTKVDIK
notes: also called mAb 278
B6: antibody 269 (antibody, V domains shown)
VH: QVQLVESGGGLIQPGGSLRLSCAASGLTVNRNYMSWIRQAPGKGLEWVSVIYSGGSTFYADSVKGRFTISRDNSKNTLSLQMNSLRAEDTAIYYCARDFYEGSFDIWGQGTMVTVSS
VL: AIQLTQSPSFLSASIGDRVTITCRASQGISSYLAWYQQKPGKAPKLLIYAASTLQSGVPSRFSGSGSGTEFTLTISSLQPEDFASYYCQQLNSYPAPVFGPGTKVDIK
notes: also called mAb 269
B7: antibody 88 (antibody, V domains shown)
VH: QLQLQESGPGLVKPSQTLSLTCTVSGGSISSGSYNWTWIRQPAGKGLEWIGRIYNSGSTNYNPSLKSRVTISVDTSKNQLSLKVRSVTAADTAVYYCARHCSGGTCYPKYYYGMDVWGQGTTVTVSS
VL: QSALTQPPSVSEAPRQRVTISCSGSSSNIGNNAVNWYQQFPGKAPKLLIYYDDLLPSGVSDRFSGSKSGTSASLAISGVQSEDEADYYCAAWDDSLNVVVFGGGTKLTVL
notes: also called mAb 88
B8: antibody 398 (antibody, V domains shown)
VH: QVQLVESGGGLVQPGGSLRLSCAASGFTVSSNYMTWVRQAPGKGLEWVSVIYSGGSTYYADSVKGRFTISRDNSKNTLYLQMNSLRADDTAVYYCARDSTADYDFWSGYYVGAFHIWGQGTMVTVSS
VL: QTVLTQPASVSGSPGQSITISCTGTSSDVGGYNYVSWYQQHPGKAPKLMIYEVTKRPSGVPDRFSGSKSGNTASLTVSGLQAEDEADYYCSSYAGSNNWVFGGGTKLTVL
notes: also called mAb 398
B9: antibody 158 (antibody, V domains shown)
VH: EVQLLESGGDLIQPGGSLRLSCAASGVTVSSNYMSWVRQAPGKGLEWVSIIYPGGSTFYADSVKGRFTISRDNSKNTLYLQMHSLRAEDTAVYYCARDLGSGDMDVWGKGTTVTVSS
VL: DIVMTQSPSFLSASVGDRVTITCRASQGISSYLAWYQQKPGKAPKLLIQAASTLQSGVPSRFSGSGSGTEFTLTISSLQPEDFATYYCQQLNSYRYTFGQGTKVEIK
notes: also called mAb 158
B10: antibody 318 (antibody, V domains shown)
VH: QVQLVQSGPEVKKPGTSVKVSCKASGFTLTSSAMQWVRQARGQRLEWIGWIVVGSGNTNYAQKFQERVTITRDMSTSTAYMELSSLRSEDTAVYYCAAGRGYNSDFDYWGQGTLVTVSS
VL: AIRMTQSPGTLSLSPGERATLSCRASQSVSSSYLAWYQQRPGQAPRLLIYGTSSRATGIPDRFSGSGSGTDFTLTISRLEPEDFAVYYCQQYGYSVYTFGQGTKVDIK
notes: also called mAb 318
B11: antibody 175 (antibody, V domains shown)
VH: EVQLVESGGGLIQPGGSLRLSCAASGLTVSRNYMSWVRQAPGKGLEWVSLIYSGGSTYYADSVKGRFTISRDNSKNTLYLQMNSLRAEDTAVYYCARDLRGEVWGQGTMVTVSS
VL: not shown
notes: also called mAb 175
B12: Fab of antibody 58 (Fab, V domains shown)
VH: QVQLVESGGGLVQPGRSLRLSCAASGFTFDDYAMHWVRQPPGKGLEWVSGVSWNSGTIGYADSVKGRFIISRDNAKNSLYLQMNSLKAEDTALYYCAREVGGTFGVLISREGGLDYWGQGTLVTVSS
VL: SYELTQPPSVSVAPGQTARITCGGNTIGSKSVHWYQQRPGQAPVLVVYDDSDRPSGIPERFSGSNSGNTATLTISRVEAGDEADYYCQVWDSSSDRVVFGGGTKLTVL
B13: Fab of antibody 281 (Fab, V domains shown)
VH: QVQLVESGGGLVQPGGSLRLSCAASGFPFSIYWMSWVRQAPGKGLEWVANIKQDGSEKYYVDSVKGRFTISRDNAKNSLYLHMNSLRGEDTAVYYCASRYYDFRPEAWFDYWGQGTLVTVSS
VL: not shown
B14: Fab of antibody 222 (Fab, V domains shown)
VH: EVQLVESGGGLIQPGGSLRLSCAASGLTVSSNYMSWVRQAPGKGLEWVSVIYSGGSTFYADSVKGRFTISRDNSKNTLYLQMNSLGAEDTAVYYCARGEGSPGNWFDPWGQGTLVTVSS
VL: DVVMTQSPGTLSLSPGERATLSCRASQSVPSSYLAWYQQKPGQAPRLLIYGASTRATGIPDRFSGSGSGTDFTLTISRLEPEDFAVYYCQHYDTSPRFGGGTKVDIK
B15: Fab of antibody 269 (Fab, V domains shown)
VH: QVQLVESGGGLIQPGGSLRLSCAASGLTVNRNYMSWIRQAPGKGLEWVSVIYSGGSTFYADSVKGRFTISRDNSKNTLSLQMNSLRAEDTAIYYCARDFYEGSFDIWGQGTMVTVSS
VL: AIQLTQSPSFLSASIGDRVTITCRASQGISSYLAWYQQKPGKAPKLLIYAASTLQSGVPSRFSGSGSGTEFTLTISSLQPEDFASYYCQQLNSYPAPVFGPGTKVDIK
notes: also called 269 Fab; COVOX-269
B16: Fab of antibody 88 (Fab, V domains shown)
VH: QLQLQESGPGLVKPSQTLSLTCTVSGGSISSGSYNWTWIRQPAGKGLEWIGRIYNSGSTNYNPSLKSRVTISVDTSKNQLSLKVRSVTAADTAVYYCARHCSGGTCYPKYYYGMDVWGQGTTVTVSS
VL: QSALTQPPSVSEAPRQRVTISCSGSSSNIGNNAVNWYQQFPGKAPKLLIYYDDLLPSGVSDRFSGSKSGTSASLAISGVQSEDEADYYCAAWDDSLNVVVFGGGTKLTVL
notes: also called 88 Fab; Fab 88
B17: Fab of antibody 40 (Fab, V domains shown)
VH: QVQLVESGGGLVQPGGSLRLSCAVSGFTVSRNYMSWVRQAPGKGLEWVSLIYSGGSTFYADSVKGRFTISRDNSKNTLYLQMNSLRAEDTAVYYCARDLFHRSGYHDYWGQGTLVTVSS
VL: not shown
notes: also called 40 Fab; Fab 40
B18: Fab of antibody 316 (Fab, V domains shown)
VH: not shown
VL: QAVLTQPPSASGSPGQSVTISCTGTSSDVGGYNYVSWYQQHPGKAPKLMIYEVSKRPSGVPDRFSGSKSGNTASLTVSGLQAEDEADYYCSSYAGSNHWVFGGGTKLTVL
notes: also called 316 Fab; Fab 316
B19: Fab of antibody 398 (Fab, V domains shown)
VH: QVQLVESGGGLVQPGGSLRLSCAASGFTVSSNYMTWVRQAPGKGLEWVSVIYSGGSTYYADSVKGRFTISRDNSKNTLYLQMNSLRADDTAVYYCARDSTADYDFWSGYYVGAFHIWGQGTMVTVSS
VL: QTVLTQPASVSGSPGQSITISCTGTSSDVGGYNYVSWYQQHPGKAPKLMIYEVTKRPSGVPDRFSGSKSGNTASLTVSGLQAEDEADYYCSSYAGSNNWVFGGGTKLTVL
B20: Fab of antibody 158 (Fab, V domains shown)
VH: EVQLLESGGDLIQPGGSLRLSCAASGVTVSSNYMSWVRQAPGKGLEWVSIIYPGGSTFYADSVKGRFTISRDNSKNTLYLQMHSLRAEDTAVYYCARDLGSGDMDVWGKGTTVTVSS
VL: DIVMTQSPSFLSASVGDRVTITCRASQGISSYLAWYQQKPGKAPKLLIQAASTLQSGVPSRFSGSGSGTEFTLTISSLQPEDFATYYCQQLNSYRYTFGQGTKVEIK
notes: also called 158 Fab; Fab 158
B21: Fab of antibody 318 (Fab, V domains shown)
VH: QVQLVQSGPEVKKPGTSVKVSCKASGFTLTSSAMQWVRQARGQRLEWIGWIVVGSGNTNYAQKFQERVTITRDMSTSTAYMELSSLRSEDTAVYYCAAGRGYNSDFDYWGQGTLVTVSS
VL: AIRMTQSPGTLSLSPGERATLSCRASQSVSSSYLAWYQQRPGQAPRLLIYGTSSRATGIPDRFSGSGSGTDFTLTISRLEPEDFAVYYCQQYGYSVYTFGQGTKVDIK
B22: Fab of antibody 175 (Fab, V domains shown)
VH: EVQLVESGGGLIQPGGSLRLSCAASGLTVSRNYMSWVRQAPGKGLEWVSLIYSGGSTYYADSVKGRFTISRDNSKNTLYLQMNSLRAEDTAVYYCARDLRGEVWGQGTMVTVSS
VL: not shown
B23: Fab 75 (Fab, V domains shown)
VH: QVQLVESGGGVVQPGRSLRLSCAASGFTFNNYPLHWVRQAPGKGPEWVAVISQDGGNKYYVDSVKGRFTISRDNSKNTLYLQMNNLRAEDTALYYCARDVVVVVAARNHYYNGMDVWGQGTTVTVSS
VL: DIQLTQSPSSVSASVGDRVTITCRASQGISSWLAWYQQKPGKAPKLLIYAVSSLQSGVPSRFSGSGSGTDFTLTISSLQPEDFATYYCQQAKSFPFTFGPGTKVEIK

Target: T1, SARS-CoV-2 receptor binding domain (RBD), native (SARS-CoV-2, UniProt P0DTC2 330-532)
T1 construct: range 330-532
Test: crystal structure

B1: binds.

Target: T2, SARS-CoV-2 spike receptor binding domain, native (SARS-CoV-2, UniProt P0DTC2 330-532)
T2 construct: range 330-532
Test: BLI, RBD on AR2G biosensor, mAb as analyte

In order of rising Kd:
1. B6  0.76 nM
2. B4  0.97 nM
3. B11  1.36 nM
4. B9  1.89 nM
5. B3  2.15 nM
6. B7  2.9 nM
7. B2  3.38 nM
8. B5  4.16 nM
9. B10  4.43 nM
10. B8  4.63 nM

Target: T3, SARS-CoV-2 receptor binding domain, native (501N) (SARS-CoV-2, UniProt P0DTC2 330-532)
T3 construct: range 330-532
Test: BLI, RBD immobilised on AR2G biosensor, 1:1 fit

In order of falling Kd:
1. B13  3.2 nM
2. B21  2.23 nM
3. B15  1.59 nM
4. B18  1.5 nM
5. B19  1.02 nM
6. B22  0.97 nM
7. B16  0.64 nM
8. B17  0.55 nM
9. B20  0.53 nM
10. B12  0.3 nM
11. B14  0.29 nM

Target: T4, SARS-CoV-2 spike receptor binding domain (RBD), His-tagged (SARS-CoV-2 (Wuhan-Hu-1 strain), UniProt P0DTC2 330-532)
T4 construct: range 330-532
Test: X-ray crystal structure of the ternary complex RBD/Fab 253/Fab 75

B23: binds.

From patent US20240043507A1 (RQ BIOTECHNOLOGY, published 2024)
